Measurements from patent publication US20110262444A1.

Target: rabbit polyclonal antibodies for Peptide 2 (CRNGDD, SEQ ID NO: 2)
Assay: Western blot, inhibition of H6D antibody binding to CRNGDD-BSA by free peptide, 10 µg peptide/µl antiserum

- percent inhibition: 81%
Binder: CRNGDD [CRNGDD (SEQ ID NO: 2) peptide, free]
